From patent US20230190801A1

Molecular target: SLAMF7 (human) (UniProt Q9NQ25)
Assay: cell-based or functional assay

B1: elotuzumab (antibody, INN chains, looked up, V domains shown)
VH: EVQLVESGGGLVQPGGSLRLSCAASGFDFSRYWMSWVRQAPGKGLEWIGEINPDSSTINYAPSLKDKFIISRDNAKNSLYLQMNSLRAEDTAVYYCARPDGNYWYFDVWGQGTLVTVSS
VL: DIQMTQSPSSLSASVGDRVTITCKASQDVGIAVAWYQQKPGKVPKLLIYWASTRHTGVPDRFSGSGSGTDFTLTISSLQPEDVATYYCQQYSSYPYTFGQGTKVEIKR
Question: Which g-NK cell-mediated cytotoxicity against elotuzumab-treated MM cell lines, correlation with SLAMF7 expression does the source give for B1 here?
Answer: Its g-NK cell-mediated cytotoxicity against elotuzumab-treated MM cell lines, correlation with SLAMF7 expression is 0.96 R^2.
